{"source": "patent US20240409635A1", "binders": {"B1": {"name": "c-Met-BsAb bispecific control antibody (anti-CD3 TA1 Fab and c-Met VHH) (bispecific antibody, not shown: a dimerising Fc or GST)", "heavy": "EVKLLESGGGLVQPKGSLKLSCAASGFTFNTYAMNWVRQAPGKGLEWVARIRSKYNNYATYYADSVKDRFTISRDDSQSILYLQMNNLKTEDTAMYYCVRHGNFGNSYVSWFAYWGQGTLVTVSSASTKGPSVFPLAPCSRSTSESTAALGCLVKDYFPEPVTVSWNSGALTSGVHTFPAVLQSSGLYSLSSVVTVPSSSLGTKTYTCNVDHKPSNTKVDKRV", "chain": "QVKLEESGGDLVQPGGSLRLSCVGSGSIFSYTAMGWYRQAPGKQRELVATIHSGGNINYADSVKGRFTISRDNTENTVYLQMNSLKPEDTAVYYCWSLLVGPETRYKDFNFWGRGTQVTVSS", "light": "QAVVTQESALTTSPGETVTLTCRSSTGAVTTSNYANWVQEKPDHLFTGLIGGTNKRAPGVPARFSGSLIGDKAALTITGAQTEDEAIYFCALWYSNLWVFGGGTKVEIKRTVAAPSVFIFPPSDEQLKSGTASVVCLLNNFYPREAKVQWKVDNALQSGNSQESVTEQDSKDSTYSLSSTLTLSKADYEKHKVYACEVTHQGLSSPVTKSFNRGEC"}, "B2": {"name": "CEA-BsAb bispecific control antibody (TA1-Fab anti-CD3 x CEA VHH) (bispecific antibody, human IgG4 S228P, kappa, F234A L235A)", "heavy": "EVKLLESGGGLVQPKGSLKLSCAASGFTFNTYAMNWVRQAPGKGLEWVARIRSKYNNYATYYADSVKDRFTISRDDSQSILYLQMNNLKTEDTAMYYCVRHGNFGNSYVSWFAYWGQGTLVTVSSASTKGPSVFPLAPCSRSTSESTAALGCLVKDYFPEPVTVSWNSGALTSGVHTFPAVLQSSGLYSLSSVVTVPSSSLGTKTYTCNVDHKPSNTKVDKRVESKYGPPCPPCPAPEAAGGPSVFLFPPKPKDTLMISRTPEVTCVVVDVSQEDPEVQFNWYVDGVEVHNAKTKPREEQFNSTYRVVSVLTVLHQDWLNGKEYKCKVSNKGLPSSIEKTISKAKGQPREPQVYTLPPCQEEMTKNQVSLWCLVKGFYPSDIAVEWESNGQPENNYKTTPPVLDSDGSFFLYSRLTVDKSRWQEGNVFSCSVMHEALHNHYTQKSLSLSL", "chain": "EVQLVESGGGFVQAGESLTLSCTSSTLTFTPYRMAWYRQAPGKQRDLVADISSGDGRTTNYADFAKGRFTISRDNIKNTVFLRMTNLKPEDTAVYYCNTFVSFVGIARSWGQGTQVTVSSESKYGPPCPPCPAPEAAGGPSVFLFPPKPKDTLMISRTPEVTCVVVDVSQEDPEVQFNWYVDGVEVHNAKTKPREEQFNSTYRVVSVLTVLHQDWLNGKEYKCKVSNKGLPSSIEKTISKAKGQPREPQVCTLPPSQEEMTKNQVSLSCAVKGFYPSDIAVEWESNGQPENNYKTTPPVLDSDGSFFLVSRLTVDKSRWQEGNVFSCSVMHEALHNRFTQKSLSLSL", "light": "B1 light"}, "B3": {"name": "EGFR-BsAb bispecific control antibody (TA1-Fab anti-CD3 x EGFR VHH) (bispecific antibody, human IgG4 S228P, kappa, F234A L235A)", "heavy": "B2 heavy", "chain": "QVQLQESGGGSVQAGGSLKLSCAASGRGFSRYAMGWFRQAPGQDREFVATISWTNSTDYADSVKGRFAISRDNAKNTAYLQMNSLKPEDTAVYYCAADKWASSTRSIDYDYWGQGIQVTVSSESKYGPPCPPCPAPEAAGGPSVFLFPPKPKDTLMISRTPEVTCVVVDVSQEDPEVQFNWYVDGVEVHNAKTKPREEQFNSTYRVVSVLTVLHQDWLNGKEYKCKVSNKGLPSSIEKTISKAKGQPREPQVCTLPPSQEEMTKNQVSLSCAVKGFYPSDIAVEWESNGQPENNYKTTPPVLDSDGSFFLVSRLTVDKSRWQEGNVFSCSVMHEALHNRFTQKSLSLSL", "light": "B1 light"}, "B4": {"name": "HER2-BsAb bispecific control antibody (TA1-Fab anti-CD3 x HER2 VHH) (bispecific antibody, human IgG4 S228P, kappa, F234A L235A)", "heavy": "B2 heavy", "chain": "QVQLVQSGGGLVQAGGSLRLSCAASGRTFSSYAMAWFRQAPGKEREFVAAISWSGANIYVADSVKGRFTISRDNAKDTVYLQMNSLKPEDTAVYYCAVKLGFAPVEERQYDYWGQGTQVTVSSESKYGPPCPPCPAPEAAGGPSVFLFPPKPKDTLMISRTPEVTCVVVDVSQEDPEVQFNWYVDGVEVHNAKTKPREEQFNSTYRVVSVLTVLHQDWLNGKEYKCKVSNKGLPSSIEKTISKAKGQPREPQVCTLPPSQEEMTKNQVSLSCAVKGFYPSDIAVEWESNGQPENNYKTTPPVLDSDGSFFLVSRLTVDKSRWQEGNVFSCSVMHEALHNRFTQKSLSLSL", "light": "B1 light"}, "B5": {"name": "CEA-CAM6-BsAb bispecific control antibody (TA1-Fab anti-CD3 x CEA-CAM6 VHH) (bispecific antibody, human IgG4 S228P, kappa, F234A L235A)", "heavy": "B2 heavy", "chain": "QVKLEESGGGLVQAGGSLRLSCRTSGRTNSVYTMGWFRQAPGKEREFVAQIMWGAGTNTHYADSVKGRFTISRDSAESTVYLQMNSLKPEDTAVYYCAANRGIPIAGRQYDYWGQGTQVTVSSESKYGPPCPPCPAPEAAGGPSVFLFPPKPKDTLMISRTPEVTCVVVDVSQEDPEVQFNWYVDGVEVHNAKTKPREEQFNSTYRVVSVLTVLHQDWLNGKEYKCKVSNKGLPSSIEKTISKAKGQPREPQVCTLPPSQEEMTKNQVSLSCAVKGFYPSDIAVEWESNGQPENNYKTTPPVLDSDGSFFLVSRLTVDKSRWQEGNVFSCSVMHEALHNRFTQKSLSLSL", "light": "B1 light"}}, "key": {"[1]": {"molecular_target": "tyrosine-protein kinase Met (c-Met) on human tumor cells (human) (UniProt P08581)", "sequence (P08581 25-1390)": "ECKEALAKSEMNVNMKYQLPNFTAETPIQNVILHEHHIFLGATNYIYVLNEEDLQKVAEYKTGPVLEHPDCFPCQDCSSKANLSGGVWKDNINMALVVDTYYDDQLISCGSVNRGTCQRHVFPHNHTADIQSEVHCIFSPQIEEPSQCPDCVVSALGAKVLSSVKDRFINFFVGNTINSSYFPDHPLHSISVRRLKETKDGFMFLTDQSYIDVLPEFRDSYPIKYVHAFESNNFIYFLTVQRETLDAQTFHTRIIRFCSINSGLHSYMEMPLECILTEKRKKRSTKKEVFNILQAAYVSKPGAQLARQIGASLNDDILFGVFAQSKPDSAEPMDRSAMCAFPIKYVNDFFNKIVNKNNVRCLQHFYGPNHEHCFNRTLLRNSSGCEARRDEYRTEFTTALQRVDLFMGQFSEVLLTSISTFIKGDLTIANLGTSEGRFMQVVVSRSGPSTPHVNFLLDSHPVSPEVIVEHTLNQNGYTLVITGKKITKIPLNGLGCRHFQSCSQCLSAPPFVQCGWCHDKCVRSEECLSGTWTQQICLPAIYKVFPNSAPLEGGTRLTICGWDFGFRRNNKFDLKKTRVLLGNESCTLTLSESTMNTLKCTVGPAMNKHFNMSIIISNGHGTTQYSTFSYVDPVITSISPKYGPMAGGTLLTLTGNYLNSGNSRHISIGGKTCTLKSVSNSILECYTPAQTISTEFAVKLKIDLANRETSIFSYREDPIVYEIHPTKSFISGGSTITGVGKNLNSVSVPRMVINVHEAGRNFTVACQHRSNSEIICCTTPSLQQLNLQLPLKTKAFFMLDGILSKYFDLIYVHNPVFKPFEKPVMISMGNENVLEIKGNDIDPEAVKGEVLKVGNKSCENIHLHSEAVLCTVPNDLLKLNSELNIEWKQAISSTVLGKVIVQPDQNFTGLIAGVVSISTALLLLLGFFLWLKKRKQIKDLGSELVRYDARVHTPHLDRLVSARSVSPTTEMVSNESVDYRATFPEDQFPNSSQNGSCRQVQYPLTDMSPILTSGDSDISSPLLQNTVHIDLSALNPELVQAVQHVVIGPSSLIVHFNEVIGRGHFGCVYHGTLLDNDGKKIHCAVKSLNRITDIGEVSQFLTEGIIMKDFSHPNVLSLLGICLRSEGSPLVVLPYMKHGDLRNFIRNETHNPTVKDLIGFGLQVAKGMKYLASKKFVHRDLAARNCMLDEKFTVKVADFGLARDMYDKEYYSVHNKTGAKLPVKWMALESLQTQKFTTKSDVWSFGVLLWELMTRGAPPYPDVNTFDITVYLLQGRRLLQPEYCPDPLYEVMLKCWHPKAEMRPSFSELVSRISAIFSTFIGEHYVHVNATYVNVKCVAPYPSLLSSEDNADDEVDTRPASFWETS", "assay": "cell-based or functional assay"}, "[2]": {"molecular_target": "CEA-BsAb bispecific control antibody (TA1-Fab anti-CD3 x CEA VHH)", "assay": "BLI self-interaction, AHQ sensor"}, "[3]": {"molecular_target": "EGFR-BsAb bispecific control antibody (TA1-Fab anti-CD3 x EGFR VHH)", "assay": "BLI self-interaction, AHQ sensor"}, "[4]": {"molecular_target": "HER2-BsAb bispecific control antibody (TA1-Fab anti-CD3 x HER2 VHH)", "assay": "BLI self-interaction, AHQ sensor"}, "[5]": {"molecular_target": "CEA-CAM6-BsAb bispecific control antibody (TA1-Fab anti-CD3 x CEA-CAM6 VHH)", "assay": "BLI self-interaction, AHQ sensor"}}, "data": [{"binder": "B1", "values": [{"measurement": "T cell mediated killing EC50, H-1975 (EGFR+c-Met+)", "setting": "[1]", "result": 0.223, "unit": "pM"}, {"measurement": "T cell mediated killing EC50, HT-29 (EGFR+c-Met+)", "setting": "[1]", "result": 0.518, "unit": "pM"}, {"measurement": "T cell mediated killing EC50, OSRC2 (EGFR+++c-Met+)", "setting": "[1]", "result": 243, "unit": "pM"}, {"measurement": "T cell mediated killing EC50, UT33A (EGFR+++c-Met+++)", "setting": "[1]", "result": 2.7, "unit": "pM"}, {"measurement": "T cell mediated killing EC50, UT44 (EGFR+++c-Met++)", "setting": "[1]", "result": 0.156, "unit": "pM"}]}, {"binder": "B2", "values": [{"measurement": "BLI-Response (self-interaction)", "setting": "[2]", "result": 0.103, "unit": "nm"}]}, {"binder": "B3", "values": [{"measurement": "BLI-Response (self-interaction)", "setting": "[3]", "result": 0.037, "unit": "nm"}]}, {"binder": "B4", "values": [{"measurement": "BLI-Response (self-interaction)", "setting": "[4]", "result": 0.066, "unit": "nm"}]}, {"binder": "B5", "values": [{"measurement": "BLI-Response (self-interaction)", "setting": "[5]", "result": 0.045, "unit": "nm"}]}]}
